Consider 1 substance from PMC7380208.

This test deals with Recombinant SARS-CoV-2 spike protein ectodomain, native glycosylation (SARS-CoV-2) (UniProt P0DTC2). Put plainly: ELISA. In general terms: In an ELISA, binding on a coated surface is turned into a signal by an enzyme label.

“Flt3 Receptor Interacting Lectin (FRIL) from Lablab purpureus (from UniProt Q9ZTA9) (natural protein)”: the lowest FRIL concentration at which binding was seen amounted to 10 ng/mL.
